This passage reports response (SQLE/MARCH6 ratio) results from paper PMC10776854.

The chains are these.
B1: MARCH6-FLAG WT [human] / SQLE [human (endogenous in K562)] (parent)
chain 1: MDTAEEDICRVCRSEGTPEKPLYHPCVCTGSIKFIHQECLVQWLKHSRKEYCELCKHRFAFTPIYSPDMPSRLPIQDIFAGLVTSIGTAIRYWFHYTLVAFAWLGVVPLTACRIYKCLFTGSVSSLLTLPLDMLSTENLLADCLQGCFVVTCTLCAFISLVWLREQIVHGGAPIWLEHAAPPFNAAGHHQNEAPAGGNGAENVAADQPANPPAENAVVGENPDAQDDQAEEEEEDNEEEDDAGVEDAADANNGAQDDMNWNALEWDRAAEELTWERMLGLDGSLVFLEHVFWVVSLNTLFILVFAFCPYHIGHFSLVGLGFEEHVQASHFEGLITTIVGYILLAITLIICHGLATLVKFHRSRRLLGVCYIVVKVSLLVVVEIGVFPLICGWWLDICSLEMFDATLKDRELSFQSAPGTTMFLHWLVGMVYVFYFASFILLLREVLRPGVLWFLRNLNDPDFNPVQEMIHLPIYRHLRRFILSVIVFGSIVLLMLWLPIRIIKSVLPNFLPYNVMLYSDAPVSELSLELLLLQVVLPALLEQGHTRQWLKGLVRAWTVTAGYLLDLHSYLLGDQEENENSANQQVNNNQHARNNNAIPVVGEGLHAAHQAILQQGGPVGFQPYRRPLNFPLRIFLLIVFMCITLLIASLICLTLPVFAGRWLMSFWTGTAKIHELYTAACGLYVCWLTIRAVTVMVAWMPQGRRVIFQKVKEWSLMIMKTLIVAVLLAGVVPLLLGLLFELVIVAPLRVPLDQTPLFYPWQDWALGVLHAKIIAAITLMGPQWWLKTVIEQVYANGIRNIDLHYIVRKLAAPVISVLLLSLCVPYVIASGVVPLLGVTAEMQNLVHRRIYPFLLMVVVLMAILSFQVRQFKRLYEHIKNDKYLVGQRLVNYERKSGKQGSSPPPPQSSQE
chain 2: MWTFLGIATFTYFYKKFGDFITLANREVLLCVLVFLSLGLVLSYRCRHRNGGLLGRQQSGSQFALFSDILSGLPFIGFFWAKSPPESENKEQLEARRRRKGTNISETSLIGTAACTSTSSQNDPEVIIVGAGVLGSALAAVLSRDGRKVTVIERDLKEPDRIVGEFLQPGGYHVLKDLGLGDTVEGLDAQVVNGYMIHDQESKSEVQIPYPLSENNQVQSGRAFHHGRFIMSLRKAAMAEPNAKFIEGVVLQLLEEDDVVMGVQYKDKETGDIKELHAPLTVVADGLFSKFRKSLVSNKVSVSSHFVGFLMKNAPQFKANHAELILANPSPVLIYQISSSETRVLVDIRGEMPRNLREYMVEKIYPQIPDHLKEPFLEATDNSHLRSMPASFLPPSSVKKRGVLLLGDAYNMRHPLTGGGMTVAFKDIKLWRKLLKGIPDLYDDAAIFEAKKSFYWARKTSHSFVVNILAQALYELFSATDDSLHQLRKACFLYFKLGGECVAGPVGLLSVLSPNPLVLIGHFFAVAIYAVYFCFKSEPWITKPRALLSSGAVLYKACSVIFPLIYSEMKYMVH

Variants of B1 are the subject of this test. The test is described as follows: FLAG-immunoprecipitation, Western blot densitometry. The note with it: with SQLE [human (endogenous in K562)], K562 cells expressing MARCH6-FLAG, eight independent biological replicates, parent: 0.55, read off a plot. (In general: A western blot detects proteins with antibodies after separation by electrophoresis.)
Consider chain 1 Y92V Y96V, for which the response (SQLE/MARCH6 ratio) is 0.27.

On to chain 1 Y92V, for which the response (SQLE/MARCH6 ratio) came out at 0.89.

On to chain 1 L140A L747A, for which the response (SQLE/MARCH6 ratio) was 0.5.

As for chain 1 Y96V, the response (SQLE/MARCH6 ratio) was determined as 0.24.
